Results taken from patent US20190218304A1 (INNATE PHARMA, published 2019).

Legend:
Human CD39-L2 = biological target: T1, Human CD39-L2 (human, UniProt O75354 61-484, limits assumed); assay: ELISA on coated recombinant human CD39-L2 [panel huCD39 L2]
T1 construct: Recombinant protein coated in ELISA; also called NTPDase6; ENTPD6
T1 sequence: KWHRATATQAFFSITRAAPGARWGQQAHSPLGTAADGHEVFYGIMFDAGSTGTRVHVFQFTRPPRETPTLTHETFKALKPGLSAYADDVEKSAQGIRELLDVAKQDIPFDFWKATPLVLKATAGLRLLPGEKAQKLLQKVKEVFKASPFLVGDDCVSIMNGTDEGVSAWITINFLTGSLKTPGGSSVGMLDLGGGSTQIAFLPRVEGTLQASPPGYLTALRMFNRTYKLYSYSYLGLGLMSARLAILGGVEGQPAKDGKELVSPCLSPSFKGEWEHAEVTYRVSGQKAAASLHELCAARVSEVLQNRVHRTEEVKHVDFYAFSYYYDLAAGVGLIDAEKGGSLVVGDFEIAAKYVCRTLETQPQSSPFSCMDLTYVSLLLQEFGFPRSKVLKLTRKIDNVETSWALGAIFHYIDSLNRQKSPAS
Description: (§1) Wells were washed in TBS Tween 20, and further saturated 2H at RT in TBS Blocking buffer. Dose range concentration of primary antibody was incubated in TBS blocking buffer for 2 h at RT. Wells were washed in TBS Tween 20. […] Optical density was measured on Enspire™ at OD=450.

CD39 mutant 5 = biological target: T2, CD39 mutant 5 (human, UniProt P49961 1-510); assay: flow cytometry on Hek-293T cells transfected with CD39 mutant 5 [panel M5]
T2 construct: Expressed on transfected Hek-293T cells; also called M5
T2 chain: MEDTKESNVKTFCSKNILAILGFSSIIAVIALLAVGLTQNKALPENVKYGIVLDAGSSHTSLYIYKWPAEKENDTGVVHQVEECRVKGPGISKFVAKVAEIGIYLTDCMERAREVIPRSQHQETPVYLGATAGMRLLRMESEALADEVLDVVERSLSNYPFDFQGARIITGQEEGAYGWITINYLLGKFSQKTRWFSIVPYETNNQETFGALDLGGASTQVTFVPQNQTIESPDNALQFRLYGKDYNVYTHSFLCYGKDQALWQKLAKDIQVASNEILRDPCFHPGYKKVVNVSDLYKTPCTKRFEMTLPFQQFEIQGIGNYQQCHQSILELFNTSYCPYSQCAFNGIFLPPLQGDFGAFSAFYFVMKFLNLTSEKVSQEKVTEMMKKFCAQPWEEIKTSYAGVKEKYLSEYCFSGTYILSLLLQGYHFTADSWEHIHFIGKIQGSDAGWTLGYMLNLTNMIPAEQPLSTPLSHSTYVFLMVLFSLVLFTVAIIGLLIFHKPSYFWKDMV

[1] = biological target: T3, human CD39 expressed on cells (human, UniProt P49961 1-510); assay: flow cytometry titration on CHO cells expressing human CD39, labeled secondary antibody [panel CHO-huCD39]
T3 construct: On CHO transfectants, HEK-293T transfectants (wild type), Ramos lymphoma cells or monocyte-derived dendritic cells, as named under assay; also called huCD39; CHO-huCD39
T3 sequence: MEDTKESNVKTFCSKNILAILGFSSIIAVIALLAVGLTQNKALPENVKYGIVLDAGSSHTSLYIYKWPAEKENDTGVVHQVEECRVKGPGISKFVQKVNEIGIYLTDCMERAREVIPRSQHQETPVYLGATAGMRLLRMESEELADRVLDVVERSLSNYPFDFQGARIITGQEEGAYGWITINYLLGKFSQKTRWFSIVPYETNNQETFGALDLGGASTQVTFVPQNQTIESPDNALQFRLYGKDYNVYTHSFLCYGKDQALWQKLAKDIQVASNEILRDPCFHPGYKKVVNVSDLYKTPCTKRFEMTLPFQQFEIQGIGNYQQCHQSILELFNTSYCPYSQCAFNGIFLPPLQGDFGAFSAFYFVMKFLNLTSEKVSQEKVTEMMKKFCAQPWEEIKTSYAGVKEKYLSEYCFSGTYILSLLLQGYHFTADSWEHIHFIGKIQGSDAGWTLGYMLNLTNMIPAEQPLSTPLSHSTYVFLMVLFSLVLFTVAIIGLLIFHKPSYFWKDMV
Description: Cells were incubated with various concentration of unlabeled anti-CD39 antibody from 30 μg/ml to 5×10⁻⁴ μg/ml, for 30 minutes at 4° C. After washes, cells were incubated with Goat anti-mouse H+L labeled secondary antibody for 30 min at 4° C.

Human CD39-L4 = biological target: T4, Human CD39-L4 (human, UniProt O75356 25-428); assay: ELISA on coated recombinant human CD39-L4 [panel huCD39 L4]
T4 construct: Recombinant protein coated in ELISA; also called NTPDase5; ENTPD5
T4 sequence: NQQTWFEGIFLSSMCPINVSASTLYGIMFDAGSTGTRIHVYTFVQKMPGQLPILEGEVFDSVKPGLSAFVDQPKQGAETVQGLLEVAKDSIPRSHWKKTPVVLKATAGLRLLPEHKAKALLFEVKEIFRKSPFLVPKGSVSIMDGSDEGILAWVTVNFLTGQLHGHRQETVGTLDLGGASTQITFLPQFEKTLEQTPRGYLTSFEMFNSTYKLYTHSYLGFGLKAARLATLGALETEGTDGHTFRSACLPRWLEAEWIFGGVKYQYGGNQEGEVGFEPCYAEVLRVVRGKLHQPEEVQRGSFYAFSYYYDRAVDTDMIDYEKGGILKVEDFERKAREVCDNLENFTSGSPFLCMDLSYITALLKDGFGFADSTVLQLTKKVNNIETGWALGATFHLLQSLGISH
Description: as §1

B1: antibody I-394 (antibody, human IgG1, kappa, V domains shown)
VH: EVQLQQSGPELVKPGASVKMSCKASGYTFTDYNMHWVKQSHGRTLEWIGYIVPLNGGSTFNQKFKGRATLTVNTSSRTAYMELRSLTSEDSAAYYCARGGTRFAYWGQGTLVTVSA
VL: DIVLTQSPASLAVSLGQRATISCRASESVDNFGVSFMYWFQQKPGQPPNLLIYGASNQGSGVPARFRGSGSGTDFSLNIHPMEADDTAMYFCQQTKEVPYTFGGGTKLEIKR
notes: The hybridoma-derived mouse form was used in early screening
Q: Does B1 bind (Human CD39-L2)?
A: no binding

Q: Does B1 bind (CD39 mutant 5)?
A: binds

Q: And the “EC50 (read off the curve)” value [1]?
A: ~0.2 µg/mL

Q: Does B1 bind (Human CD39-L4)?
A: no binding
